Test results reported in article PMC12416549 (2024).
Positions count from the first letter of the chain named. Names and notes keep the numbering of the source.

T1: TNFR1 (Homo sapiens, UniProt P19438)
T1 chain: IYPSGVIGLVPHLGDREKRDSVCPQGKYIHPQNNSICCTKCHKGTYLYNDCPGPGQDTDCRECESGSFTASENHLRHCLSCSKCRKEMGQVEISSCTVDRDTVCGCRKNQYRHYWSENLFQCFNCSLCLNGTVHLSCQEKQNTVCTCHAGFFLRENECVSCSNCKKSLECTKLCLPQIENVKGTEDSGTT

B1: K69D (designed binder)
chain: SMEEEVEKAAKEYEKKKKEAIEKHLEKLKAKDKEAAERFLKELEEAAKEYAKDEAKTMSEEEAKRRAKDYKEKVLLSELSEEEQKEIKEAEEKLVRTILKYVEEAAK
B2: E37P (designed binder)
chain: B1 chain with E37P, D69K
B3: E62T (designed binder)
chain: B1 chain with E62T, D69K
B4: S1V (designed binder)
chain: B1 chain with S1V, D69K
B5: V6P (designed binder)
chain: B1 chain with V6P, D69K
B6: E72D (designed binder)
chain: B1 chain with D69K, E72D
B7: K23S (designed binder)
chain: B1 chain with K23S, D69K
B8: L99Y (designed binder)
chain: B1 chain with D69K, L99Y
B9: H24G (designed binder)
chain: B1 chain with H24G, D69K
B10: A63M (designed binder)
chain: B1 chain with A63M, D69K
B11: E82Y (designed binder)
chain: B1 chain with D69K, E82Y
B12: I98N (designed binder)
chain: B1 chain with D69K, I98N
B13: E91C (designed binder)
chain: B1 chain with D69K, E91C
B14: K17W (designed binder)
chain: B1 chain with K17W, D69K
B15: E60M (designed binder)
chain: B1 chain with E60M, D69K
B16: E45L (designed binder)
chain: B1 chain with E45L, D69K
B17: K15C (designed binder)
chain: B1 chain with K15C, D69K
B18: A90S (designed binder)
chain: B1 chain with D69K, A90S
B19: E91Y (designed binder)
chain: B1 chain with D69K, E91Y
B20: A35E (designed binder)
chain: B1 chain with A35E, D69K
B21: I87D (designed binder)
chain: B1 chain with D69K, I87D
B22: L99C (designed binder)
chain: B1 chain with D69K, L99C
B23: E44L (designed binder)
chain: B1 chain with E44L, D69K
B24: L94E (designed binder)
chain: B1 chain with D69K, L94E
B25: K11A (designed binder)
chain: B1 chain with K11A, D69K
B26: L75R (designed binder)
chain: B1 chain with D69K, L75R
B27: D32W (designed binder)
chain: B1 chain with D32W, D69K
B28: V74M (designed binder)
chain: B1 chain with D69K, V74M
B29: A36H (designed binder)
chain: B1 chain with A36H, D69K
B30: K31V (designed binder)
chain: B1 chain with K31V, D69K
B31: E26Q (designed binder)
chain: B1 chain with E26Q, D69K
B32: K48W (designed binder)
chain: B1 chain with K48W, D69K
B33: K93F (designed binder)
chain: B1 chain with D69K, K93F
B34: I98F (designed binder)
chain: B1 chain with D69K, I98F
B35: K85L (designed binder)
chain: B1 chain with D69K, K85L
B36: I21V (designed binder)
chain: B1 chain with I21V, D69K
B37: V74Q (designed binder)
chain: B1 chain with D69K, V74Q
B38: A67D (designed binder)
chain: B1 chain with A67D, D69K
B39: E5A (designed binder)
chain: B1 chain with E5A, D69K
B40: M2Q (designed binder)
chain: B1 chain with M2Q, D69K
B41: Y101E (designed binder)
chain: B1 chain with D69K, Y101E
B42: E26V (designed binder)
chain: B1 chain with E26V, D69K
B43: A10G (designed binder)
chain: B1 chain with A10G, D69K
B44: K71N (designed binder)
chain: B1 chain with D69K, K71N
B45: K15D (designed binder)
chain: B1 chain with K15D, D69K
B46: E3L (designed binder)
chain: B1 chain with E3L, D69K
B47: A47H (designed binder)
chain: B1 chain with A47H, D69K
B48: E104I (designed binder)
chain: B1 chain with D69K, E104I
B49: M2N (designed binder)
chain: B1 chain with M2N, D69K
B50: E7S (designed binder)
chain: B1 chain with E7S, D69K
B51: S77Y (designed binder)
chain: B1 chain with D69K, S77Y
B52: H24C (designed binder)
chain: B1 chain with H24C, D69K
B53: K85D (designed binder)
chain: B1 chain with D69K, K85D
B54: S80C (designed binder)
chain: B1 chain with D69K, S80C
B55: E54Y (designed binder)
chain: B1 chain with E54Y, D69K
B56: Y50Q (designed binder)
chain: B1 chain with Y50Q, D69K
B57: K73H (designed binder)
chain: B1 chain with D69K, K73H
B58: E34N (designed binder)
chain: B1 chain with E34N, D69K
B59: E89C (designed binder)
chain: B1 chain with D69K, E89C

Target: T1, TNFR1
Assay: yeast display SC50

| apparent Kd (screen) [nM] | Binder |
| --- | --- |
| 1.4 | B1 |
| 0.49 | B2 |
| 1.54 | B3 |
| 0.869 | B4 |
| 0.446 | B5 |
| 1.4 | B6 |
| 0.49 | B7 |
| 9.41 | B8 |
| 0.718 | B9 |
| 9.41 | B10 |
| 0.653 | B11 |
| 5.84 | B12 |
| 13.8 | B13 |
| 1.16 | B14 |
| 0.49 | B15 |
| 1.69 | B16 |
| 1.27 | B17 |
| 0.79 | B18 |
| 8.56 | B19 |
| 2.25 | B20 |

| apparent Kd (screen) [nM] | Binder |
| --- | --- |
| 15.2 | B21 |
| 13.8 | B22 |
| 1.4 | B23 |
| 8.56 | B24 |
| 0.446 | B25 |
| 1.16 | B26 |
| 22.2 | B27 |
| 1.54 | B28 |
| 0.49 | B29 |
| 0.446 | B30 |
| 0.956 | B31 |
| 2.73 | B32 |
| 0.653 | B33 |
| 4.39 | B34 |
| 0.79 | B35 |
| 0.446 | B36 |
| 29.5 | B37 |
| 5.31 | B38 |
| 0.593 | B39 |
| 0.869 | B40 |

| apparent Kd (screen) [nM] | Binder |
| --- | --- |
| 0.405 | B41 |
| 0.79 | B42 |
| 0.446 | B43 |
| 0.446 | B44 |
| 0.653 | B45 |
| 12.5 | B46 |
| 0.446 | B47 |
| 0.653 | B48 |
| 0.49 | B49 |
| 2.73 | B50 |
| 0.869 | B51 |
| 0.446 | B52 |
| 0.446 | B53 |
| 1.05 | B54 |
| 7.78 | B55 |
| 4.83 | B56 |
| 12.5 | B57 |
| 0.49 | B58 |
| 1.86 | B59 |
